From doi:10.1101/2022.08.28.505448 (bioRxiv, 2022)

Biological target: T1, MITF_(81-204) (UniProt O75030-9 81-204)
T1 sequence (looked up): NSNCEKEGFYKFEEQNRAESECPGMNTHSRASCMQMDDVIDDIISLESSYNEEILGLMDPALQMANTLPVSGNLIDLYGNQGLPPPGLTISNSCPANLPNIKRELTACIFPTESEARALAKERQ
Assay: ITC

Binder	Kd
TAZ2 (residues 1723-1812 of p300 with four stabilizing mutations) (domain or fragment, human, UniProt Q09472 1723-1812, looked up) ATQSPGDSRRLSIQRAIQSLVHAAQCRNANCSLPSCQKMKRVVQHTKGCKRKTNGGCPICKQLIALAAYHAKHCQENKCPVPFCLNIKQK	1.24 ± 0.23 µM
TAZ1 (residues 346-440 of CBP) (domain or fragment) not shown	6.7 ± 0.5 µM

Biological target: T2, GB1-TAZ2 (human, UniProt Q09472 1723-1812, C1738A | C1746A | C1789A | C1790A)
T2 sequence (looked up): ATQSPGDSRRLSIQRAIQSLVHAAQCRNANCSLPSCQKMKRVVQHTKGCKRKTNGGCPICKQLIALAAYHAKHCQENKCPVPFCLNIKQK
Assay: peptide or protein array

Binder	binding result
DDVIDDIISAESSYNEEIL (peptide, UniProt O75030-9 117-135, looked up) [MITF_(117-135) peptide, Leu126 mutated to alanine]	binds
DAVIDDIISLESSYNEEIL (peptide, UniProt O75030-9 117-135, looked up) [MITF_(117-135) peptide, Asp118 mutated to alanine]	binds
DDVIDDIISLASSYNEEIL (peptide, UniProt O75030-9 117-135, looked up) [MITF_(117-135) peptide, Glu127 mutated to alanine]	binds
DDVIDDIIALESSYNEEIL (peptide, UniProt O75030-9 117-135, looked up) [MITF_(117-135) peptide, Ser125 mutated to alanine]	binds
DDVADDIISLESSYNEEIL (peptide, UniProt O75030-9 117-135, looked up) [MITF_(117-135) peptide, Ile120 mutated to alanine]	binds
DDAIDDIISLESSYNEEIL (peptide, UniProt O75030-9 117-135, looked up) [MITF_(117-135) peptide, Val119 mutated to alanine]	binds
DDVIDDIASLESSYNEEIL (peptide, UniProt O75030-9 117-135, looked up) [MITF_(117-135) peptide, Ile124 mutated to alanine]	binds
DDVIDDAISLESSYNEEIL (peptide, UniProt O75030-9 117-135, looked up) [MITF_(117-135) peptide, Ile123 mutated to alanine]	binds
DDVIDAIISLESSYNEEIL (peptide, UniProt O75030-9 117-135, looked up) [MITF_(117-135) peptide, Asp122 mutated to alanine]	binds
DDVIADIISLESSYNEEIL (peptide, UniProt O75030-9 117-135, looked up) [MITF_(117-135) peptide, Asp121 mutated to alanine]	binds
ADVIDDIISLESSYNEEIL (peptide, UniProt O75030-9 117-135, looked up) [MITF_(117-135) peptide, Asp117 mutated to alanine]	binds

Biological target: T3, GB1-MITF_(81-204) Δ123-127 (UniProt O75030-9 81-204, Δ123-127)
T3 sequence (looked up): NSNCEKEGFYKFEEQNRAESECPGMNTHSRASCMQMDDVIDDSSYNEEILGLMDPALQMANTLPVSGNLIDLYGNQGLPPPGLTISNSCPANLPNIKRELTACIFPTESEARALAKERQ
Assay: pull-down

Binder	binding result
TAZ2 (residues 1723-1812 of p300 with four stabilizing mutations) (domain or fragment, human, UniProt Q09472 1723-1812, looked up) ATQSPGDSRRLSIQRAIQSLVHAAQCRNANCSLPSCQKMKRVVQHTKGCKRKTNGGCPICKQLIALAAYHAKHCQENKCPVPFCLNIKQK	binds
